Where two headings read alike, the source gives them in different places.
Key:
[1] = biological target: SARS-CoV-2 spike protein receptor binding domain, wild-type (SARS-CoV-2) (UniProt P0DTC2); assay: ITC
[2] = biological target: SARS-CoV-2 spike protein receptor binding domain, wild-type (SARS-CoV-2) (UniProt P0DTC2); assay: ITC; remark: listed apart in the source

Row | Substance | Kd [1] [nM] | Kd [2] [nM]
1 | CC12.1 single chain variable fragment (scFv) | 23.9 | 28
2 | P2B-2F6 single chain variable fragment (scFv) | 81.4 | –

From paper PMC9076029
